{"source": "patent US20250075006A1", "about": "(SHANDONG SIMCERE BIOPHARMACEUTICAL, published 2025)", "binders": {"B1": {"name": "PF1608-hIgG1 (antibody, V domains shown)", "VH": "EVQLVESGGGLVQPGGSLRLSCAASGFTFSSYWMHWVRQAPGKGLEWIGEIKPSNELTNVHEKFKDRFTISVDKAKNSAYLQMNSLRAEDTAVYYCTRTITTTEGYWFFDVWGQGTLVTVSS", "VL": "DIQLTQSPSSLSASVGDRVTITCRASESVDYYGSSLLQWYQQKPGKAPKLLIYAASKLASGVPSRFSGSGSGTDFTLTISSLQPEDFATYYCQQTRKAYTFGQGTKLEIKR", "notes": "also called PF1608-hlgG1; positive control antibody"}, "B2": {"name": "5F9-hIgG1 (antibody, V domains shown)", "VH": "QVQLQQWGAGLLKPSETLSLTCAVFGGSFSGYYWSWIRQPPGKGLEWIGEINHRGNTNDNPSLKSRVTISVDTSKNQFALKLSSVTAADTAVYYCARERGYTYGNFDHWGQGTLVTVSS", "VL": "EIVMTQSPATLSVSPGERATLSCRASQSVSRNLAWYQQKPGQAPRLLIYGASTRATGIPARFSGSGSGTEFTLTIGSLQSEDFAVYYCQQYKTWPRTFGQGTNVEIKR", "notes": "also called positive control antibody"}}, "key": {"[1]": {"biological_target": "T1, Human GUCY2C ECD (his-tagged human GUCY2C protein extracellular domain fusion protein) (human, UniProt P25092 24-430)", "T1 construct": "also called human GUCY2C-his; human GUCY2C-His", "T1 sequence (P25092 other isoform, or with tags, fused parts or gaps)": "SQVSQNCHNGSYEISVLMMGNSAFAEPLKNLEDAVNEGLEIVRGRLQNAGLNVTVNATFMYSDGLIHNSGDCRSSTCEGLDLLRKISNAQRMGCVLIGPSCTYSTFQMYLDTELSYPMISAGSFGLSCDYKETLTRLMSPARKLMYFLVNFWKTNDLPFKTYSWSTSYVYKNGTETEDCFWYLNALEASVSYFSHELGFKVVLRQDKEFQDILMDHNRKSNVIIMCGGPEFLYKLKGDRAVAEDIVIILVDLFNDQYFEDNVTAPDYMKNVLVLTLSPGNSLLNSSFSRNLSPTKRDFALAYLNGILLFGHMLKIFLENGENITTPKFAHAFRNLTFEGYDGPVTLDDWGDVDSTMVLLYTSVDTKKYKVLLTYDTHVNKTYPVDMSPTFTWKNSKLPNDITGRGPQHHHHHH", "assay": "ELISA, plate coated with human GUCY2C-his, OD450", "procedure": "(§1) To assay the binding activity of the humanized antibodies to human GUCY2C-his protein, a human GUCY2C-his protein was diluted with PBS to a final concentration of 2 μg/mL and then added to a 96-well ELISA plate at 50 μL/well. The plate was sealed with a plastic film and incubated at 4° C. overnight. The next day, the plate was washed 2 times with PBST, and a blocking buffer [PBS+2% (w/w) BSA] was added for blocking at room temperature for 2 h. The blocking buffer was discarded, and the plate was washed 2 times with PBST. An antibody to be tested or a control antibody diluted in a 1:3 gradient from a starting concentration of 100 nM was added at 50 μL/well. After incubation at 37° C. for 1 h, the plate was washed 3 times with PBST. A horseradish peroxidase (HRP)—labeled secondary antibody (purchased from Merck, Cat. No. AP113P) was added for incubation at 37° C. for 1 h, and the plate was washed 5 times with PBST. A TMB substrate was added at 50 µL/well for incubation at room temperature for 5-10 min, and then a stop solution (1.0 M HCl) was added at 50 μL/well. OD450 nm values were read using an ELISA plate reader (Multimode Plate Reader, EnSight, purchased from Perkin Elmer)."}, "[2]": {"biological_target": "T1, Human GUCY2C ECD (his-tagged human …)", "assay": "ELISA, plate coated with human GUCY2C-his, OD450", "procedure": "as §1", "remark": "listed apart in the source"}, "[3]": {"biological_target": "T2, Mouse GUCY2C ECD (his-tagged mouse GUCY2C protein extracellular domain fusion protein) (mouse, UniProt Q3UWA6 20-433)", "T2 construct": "also called murine GUCY2C-his; murine GUCY2C-His", "T2 sequence": "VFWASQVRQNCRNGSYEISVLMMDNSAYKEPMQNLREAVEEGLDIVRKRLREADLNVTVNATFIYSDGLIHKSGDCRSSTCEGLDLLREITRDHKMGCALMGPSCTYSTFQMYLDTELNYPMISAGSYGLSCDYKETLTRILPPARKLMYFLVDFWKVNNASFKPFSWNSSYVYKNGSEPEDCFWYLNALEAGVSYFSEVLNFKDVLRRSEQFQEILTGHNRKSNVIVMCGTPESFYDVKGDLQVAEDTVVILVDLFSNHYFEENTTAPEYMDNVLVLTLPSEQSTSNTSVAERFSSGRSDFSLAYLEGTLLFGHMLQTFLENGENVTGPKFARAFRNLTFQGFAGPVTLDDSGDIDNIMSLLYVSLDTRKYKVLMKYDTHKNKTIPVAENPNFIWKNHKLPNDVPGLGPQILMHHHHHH", "assay": "ELISA, plate coated with mouse GUCY2C-his, OD450", "procedure": "A human GUCY2C-his protein was diluted with PBS to a final concentration of 2 μg/mL and then added to a 96-well ELISA plate at 50 μL/well. The plate was sealed with a plastic film and incubated at 4° C. overnight. The next day, the plate was washed 2 times with PBST, and a blocking buffer [PBS+2% (w/w) BSA] was added for blocking at room temperature for 2 h. The blocking buffer was discarded, and the recombinant antibody and positive and negative control antibody with a starting concentration of 100 nM serially diluted by 3 folds were added at 50 μL/well. After incubation at 37° C. for 1 h, the plate was washed 3 times with PBST. A horseradish peroxidase (HRP)—labeled secondary antibody (purchased from Merck, Cat. No. AP113P) was added for incubation at 37° C. for 1 h, and the plate was washed 5 times with PBST. A TMB substrate was added at 50 μL/well for incubation at room temperature for 10 min, and then a stop solution (1.0 M HCl) was added at 50 μL/well. The OD450 nm values were read by an ELISA plate reader (Multimode Plate Reader, EnSight, purchased from Perkin Elmer).\nThe monkey GUCY2C-his and murine GUCY2C-his proteins were subjected to ELISA and data analysis according to the method described in Example 4.2. The recombinant antibodies Lab306-huFc, Lab322-huFc, and Lab323-huFc have a relatively good binding activity with the monkey GUCY2C-his protein. […]"}, "[4]": {"biological_target": "T3, Cyno GUCY2C ECD (his-tagged cynomolgus monkey GUCY2C protein extracellular domain fusion protein) (cynomolgus monkey, UniProt P25092 24-430 (human entry))", "T3 construct": "also called monkey GUCY2C-his; monkey GUCY2C-His", "T3 chain": "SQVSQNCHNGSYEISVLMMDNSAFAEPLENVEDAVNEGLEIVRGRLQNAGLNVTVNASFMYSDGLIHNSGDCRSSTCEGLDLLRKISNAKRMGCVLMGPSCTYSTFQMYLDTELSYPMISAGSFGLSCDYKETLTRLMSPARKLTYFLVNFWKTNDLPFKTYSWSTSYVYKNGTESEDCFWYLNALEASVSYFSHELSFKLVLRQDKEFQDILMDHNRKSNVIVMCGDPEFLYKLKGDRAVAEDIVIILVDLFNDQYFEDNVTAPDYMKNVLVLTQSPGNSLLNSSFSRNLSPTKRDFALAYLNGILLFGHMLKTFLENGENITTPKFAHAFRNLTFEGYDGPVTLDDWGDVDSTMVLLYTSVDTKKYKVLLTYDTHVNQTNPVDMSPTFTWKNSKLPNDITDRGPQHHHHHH", "assay": "ELISA, plate coated with monkey GUCY2C-his, OD450"}}, "note": "Like-named read-outs stand apart in the source and are kept apart here."}
{"binder": "B1", "values": [{"measurement": "EC50 (read off the curve)", "setting": "[1]", "value": "~0.05", "unit": "nM"}, {"measurement": "EC50 (read off the curve)", "setting": "[2]", "value": "~0.05", "unit": "nM"}, {"measurement": "EC50 (read off the curve)", "setting": "[3]", "value": "~0.05", "unit": "nM"}, {"measurement": "EC50 (read off the curve)", "setting": "[4]", "value": "~0.06", "unit": "nM"}]}
{"binder": "B2", "values": [{"measurement": "EC50 (read off the curve)", "setting": "[1]", "value": "~0.04", "unit": "nM"}, {"measurement": "EC50 (read off the curve)", "setting": "[2]", "value": "~0.04", "unit": "nM"}, {"measurement": "binding result", "setting": "[3]", "value": "no binding (tested: 100 nM)"}, {"measurement": "EC50 (read off the curve)", "setting": "[4]", "value": "~0.04", "unit": "nM"}]}
